Assay results reported in patent US20030113828.

Molecular target: integrin αIIbβ3 (wild type) (UniProt P08514)

Syk truncation mutant (residues 1-330)
adhesion dependent phosphorylation of Vav1: Over expression of Syk(1-330) also inhibited adhesion dependent phosphorylation of Vav1
